From patent publication US20090203602A1 (AMERICAN TYPE CULTURE COLLECTION, published 2009)

What was measured:
Experiment in all cases: cell-based or functional assay
[1] = molecular target: T1, IKKβ(h) (human, UniProt O14920 1-756, limits assumed)
T1 sequence (looked up): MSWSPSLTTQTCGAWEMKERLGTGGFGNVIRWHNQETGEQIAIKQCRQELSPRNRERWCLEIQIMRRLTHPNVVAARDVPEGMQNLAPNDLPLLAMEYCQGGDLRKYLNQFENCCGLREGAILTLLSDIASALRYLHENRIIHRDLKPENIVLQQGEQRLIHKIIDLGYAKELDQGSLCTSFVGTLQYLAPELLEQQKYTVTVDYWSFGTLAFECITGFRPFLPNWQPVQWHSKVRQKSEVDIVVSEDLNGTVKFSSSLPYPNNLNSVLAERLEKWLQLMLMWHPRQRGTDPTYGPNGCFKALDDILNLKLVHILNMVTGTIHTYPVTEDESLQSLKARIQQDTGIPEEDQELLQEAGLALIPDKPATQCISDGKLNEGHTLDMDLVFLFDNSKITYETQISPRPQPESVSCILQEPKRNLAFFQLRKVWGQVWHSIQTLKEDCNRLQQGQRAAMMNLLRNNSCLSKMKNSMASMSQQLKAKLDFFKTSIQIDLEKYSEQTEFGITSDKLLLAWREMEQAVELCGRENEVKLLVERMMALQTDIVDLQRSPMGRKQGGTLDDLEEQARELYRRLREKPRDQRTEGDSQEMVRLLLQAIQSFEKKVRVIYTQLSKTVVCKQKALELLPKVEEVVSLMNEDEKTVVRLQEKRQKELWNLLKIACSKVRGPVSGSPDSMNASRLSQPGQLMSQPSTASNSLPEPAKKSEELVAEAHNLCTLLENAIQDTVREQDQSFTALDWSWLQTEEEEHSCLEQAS

[2] = molecular target: IR (h) (human, UniProt P06213 1005-1310, limits assumed)
IR (h), sequence (P06213 1005-1310 limits assumed): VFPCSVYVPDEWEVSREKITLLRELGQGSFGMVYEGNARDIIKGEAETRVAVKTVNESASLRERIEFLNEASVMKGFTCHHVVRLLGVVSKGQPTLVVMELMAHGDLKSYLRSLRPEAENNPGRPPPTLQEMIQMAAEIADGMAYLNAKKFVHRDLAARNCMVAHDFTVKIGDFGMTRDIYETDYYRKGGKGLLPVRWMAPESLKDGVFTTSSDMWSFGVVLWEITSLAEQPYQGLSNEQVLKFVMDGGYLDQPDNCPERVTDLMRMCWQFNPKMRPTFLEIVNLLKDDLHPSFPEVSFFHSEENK

[3] = molecular target: MAPK1 (h) (human, UniProt P28482)
MAPK1 (h), sequence (P28482 2-360): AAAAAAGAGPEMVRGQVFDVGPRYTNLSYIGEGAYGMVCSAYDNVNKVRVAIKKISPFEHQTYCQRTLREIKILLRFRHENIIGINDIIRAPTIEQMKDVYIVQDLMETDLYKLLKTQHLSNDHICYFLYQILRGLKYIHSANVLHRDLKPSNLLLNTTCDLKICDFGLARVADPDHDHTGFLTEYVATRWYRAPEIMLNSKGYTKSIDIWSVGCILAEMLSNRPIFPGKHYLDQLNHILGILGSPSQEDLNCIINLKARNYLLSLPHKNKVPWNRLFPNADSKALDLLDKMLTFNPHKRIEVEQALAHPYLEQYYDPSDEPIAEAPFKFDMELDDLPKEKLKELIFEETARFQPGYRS

[4] = molecular target: MAPK2 (h) (human, UniProt P28482 1-360, limits assumed)
MAPK2 (h), sequence (P28482 whole entry): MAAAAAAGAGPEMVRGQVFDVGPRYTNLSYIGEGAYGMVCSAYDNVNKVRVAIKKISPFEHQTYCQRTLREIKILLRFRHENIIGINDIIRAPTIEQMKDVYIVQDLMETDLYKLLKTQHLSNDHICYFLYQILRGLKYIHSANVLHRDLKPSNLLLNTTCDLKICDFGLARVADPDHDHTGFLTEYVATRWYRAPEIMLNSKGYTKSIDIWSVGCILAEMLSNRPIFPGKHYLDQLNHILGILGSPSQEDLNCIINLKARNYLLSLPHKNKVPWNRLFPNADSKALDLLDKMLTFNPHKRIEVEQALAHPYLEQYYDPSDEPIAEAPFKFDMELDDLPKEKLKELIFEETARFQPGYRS

[5] = molecular target: RPS6KB1 (p70S6K) Ribosomal protein S6 kinase, 70 kDa, polypeptide 1 (human, UniProt P23443 1-421, limits assumed)
RPS6KB1 (p70S6K) Ribosomal protein S6 kinase, 70 kDa, polypeptide 1, sequence (P23443 1-421 limits assumed): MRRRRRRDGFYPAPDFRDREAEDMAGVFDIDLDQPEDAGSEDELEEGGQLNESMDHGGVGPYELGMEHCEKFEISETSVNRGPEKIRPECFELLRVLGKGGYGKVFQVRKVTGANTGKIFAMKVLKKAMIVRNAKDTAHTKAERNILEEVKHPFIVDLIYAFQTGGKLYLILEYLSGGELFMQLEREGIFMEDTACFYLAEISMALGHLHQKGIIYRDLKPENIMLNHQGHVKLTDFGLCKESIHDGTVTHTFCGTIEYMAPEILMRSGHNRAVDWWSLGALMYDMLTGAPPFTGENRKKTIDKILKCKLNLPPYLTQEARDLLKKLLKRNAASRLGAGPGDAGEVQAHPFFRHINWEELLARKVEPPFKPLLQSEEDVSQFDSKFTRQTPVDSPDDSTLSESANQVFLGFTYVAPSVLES

[6] = molecular target: T2, PDK1 (h) (human, UniProt O15530 1-556, limits assumed)
T2 sequence (looked up): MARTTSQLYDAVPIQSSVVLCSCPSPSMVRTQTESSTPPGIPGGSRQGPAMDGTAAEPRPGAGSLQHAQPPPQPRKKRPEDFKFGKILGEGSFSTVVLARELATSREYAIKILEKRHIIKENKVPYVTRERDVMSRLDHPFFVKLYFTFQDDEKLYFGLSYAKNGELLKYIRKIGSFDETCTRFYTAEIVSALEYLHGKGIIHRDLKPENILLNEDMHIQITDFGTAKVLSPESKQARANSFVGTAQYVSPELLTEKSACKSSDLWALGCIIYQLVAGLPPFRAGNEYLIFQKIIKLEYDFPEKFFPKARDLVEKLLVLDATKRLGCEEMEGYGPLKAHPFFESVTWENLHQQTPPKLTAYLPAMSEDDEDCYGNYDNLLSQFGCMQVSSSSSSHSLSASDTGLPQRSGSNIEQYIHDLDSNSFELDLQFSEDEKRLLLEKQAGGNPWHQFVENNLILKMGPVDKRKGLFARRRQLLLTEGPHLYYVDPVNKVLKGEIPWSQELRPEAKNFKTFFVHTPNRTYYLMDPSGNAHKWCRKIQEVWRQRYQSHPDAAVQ

[7] = molecular target: PKA(h) (human, UniProt P17612 1-351)
[8] = molecular target: PKBβ (h) (human, UniProt P31751 1-481, limits assumed)
PKBβ (h), sequence (P31751 whole entry): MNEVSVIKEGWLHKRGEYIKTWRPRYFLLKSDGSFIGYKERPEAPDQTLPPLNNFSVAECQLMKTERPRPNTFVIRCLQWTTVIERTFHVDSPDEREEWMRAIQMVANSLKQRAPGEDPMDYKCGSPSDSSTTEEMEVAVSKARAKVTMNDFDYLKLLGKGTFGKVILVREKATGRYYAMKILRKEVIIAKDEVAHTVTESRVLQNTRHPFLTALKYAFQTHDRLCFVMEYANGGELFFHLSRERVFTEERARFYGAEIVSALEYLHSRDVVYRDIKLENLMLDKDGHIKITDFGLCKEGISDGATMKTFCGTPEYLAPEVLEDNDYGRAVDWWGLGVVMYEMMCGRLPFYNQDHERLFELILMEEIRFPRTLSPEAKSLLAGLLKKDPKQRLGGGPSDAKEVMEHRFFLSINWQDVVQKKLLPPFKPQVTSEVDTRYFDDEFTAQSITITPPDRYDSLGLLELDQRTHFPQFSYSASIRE

[9] = molecular target: PKCβII (h) (human, UniProt P05771-2 1-673)
PKCβII (h), sequence (P05771 other isoform, or with tags, fused parts or gaps limits assumed): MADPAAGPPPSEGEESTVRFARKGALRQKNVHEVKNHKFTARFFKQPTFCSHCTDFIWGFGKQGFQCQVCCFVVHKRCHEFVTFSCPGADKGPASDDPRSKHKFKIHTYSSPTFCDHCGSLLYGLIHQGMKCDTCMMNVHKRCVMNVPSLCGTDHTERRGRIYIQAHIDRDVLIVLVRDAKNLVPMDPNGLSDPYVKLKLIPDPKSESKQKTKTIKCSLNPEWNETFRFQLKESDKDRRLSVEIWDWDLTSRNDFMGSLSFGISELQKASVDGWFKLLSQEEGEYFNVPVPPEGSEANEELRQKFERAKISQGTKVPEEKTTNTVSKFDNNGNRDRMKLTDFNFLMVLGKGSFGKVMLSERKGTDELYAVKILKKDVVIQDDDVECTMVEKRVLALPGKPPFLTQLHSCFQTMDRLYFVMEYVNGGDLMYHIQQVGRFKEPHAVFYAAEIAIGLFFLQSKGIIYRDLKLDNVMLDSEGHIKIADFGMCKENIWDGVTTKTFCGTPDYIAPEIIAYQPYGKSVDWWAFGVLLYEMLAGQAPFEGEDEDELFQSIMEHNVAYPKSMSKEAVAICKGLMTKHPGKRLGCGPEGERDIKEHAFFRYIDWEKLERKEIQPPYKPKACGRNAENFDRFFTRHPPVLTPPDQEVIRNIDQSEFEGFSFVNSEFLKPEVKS

[10] = molecular target: T3, PKCζ (h) (human, UniProt Q05513 1-592, limits assumed)
T3 sequence (looked up): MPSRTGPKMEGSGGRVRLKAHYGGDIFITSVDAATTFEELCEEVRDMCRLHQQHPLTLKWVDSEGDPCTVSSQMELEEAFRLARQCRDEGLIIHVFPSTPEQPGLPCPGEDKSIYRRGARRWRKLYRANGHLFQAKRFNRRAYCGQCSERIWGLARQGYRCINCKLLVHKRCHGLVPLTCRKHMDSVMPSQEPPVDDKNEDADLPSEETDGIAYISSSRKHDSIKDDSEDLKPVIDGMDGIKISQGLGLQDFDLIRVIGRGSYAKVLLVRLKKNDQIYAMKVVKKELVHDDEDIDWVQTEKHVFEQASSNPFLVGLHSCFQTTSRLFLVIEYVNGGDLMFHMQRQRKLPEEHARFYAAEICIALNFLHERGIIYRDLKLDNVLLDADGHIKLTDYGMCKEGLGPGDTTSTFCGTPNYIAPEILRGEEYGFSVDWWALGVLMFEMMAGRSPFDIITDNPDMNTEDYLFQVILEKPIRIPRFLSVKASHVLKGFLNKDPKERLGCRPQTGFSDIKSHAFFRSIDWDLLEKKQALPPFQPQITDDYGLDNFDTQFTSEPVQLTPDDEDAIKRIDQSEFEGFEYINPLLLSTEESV

[11] = molecular target: T4, SGK (SGK1) Serum/glucocorticoid regulated kinase (human, UniProt O00141 60-431, limits assumed)
T4 sequence (looked up): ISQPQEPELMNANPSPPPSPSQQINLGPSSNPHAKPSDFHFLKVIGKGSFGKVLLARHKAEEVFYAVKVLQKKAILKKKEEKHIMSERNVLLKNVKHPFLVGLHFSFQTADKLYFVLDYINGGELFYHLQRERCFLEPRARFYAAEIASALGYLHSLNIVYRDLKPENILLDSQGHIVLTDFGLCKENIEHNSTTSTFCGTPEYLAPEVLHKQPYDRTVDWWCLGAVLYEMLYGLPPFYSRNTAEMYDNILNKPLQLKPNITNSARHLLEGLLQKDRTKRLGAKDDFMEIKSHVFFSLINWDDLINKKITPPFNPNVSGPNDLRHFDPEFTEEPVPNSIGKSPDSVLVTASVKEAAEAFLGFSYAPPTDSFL

[12] = molecular target: GSK3β (h) (human, UniProt P49841 1-420, limits assumed)
GSK3β (h), sequence (P49841 whole entry): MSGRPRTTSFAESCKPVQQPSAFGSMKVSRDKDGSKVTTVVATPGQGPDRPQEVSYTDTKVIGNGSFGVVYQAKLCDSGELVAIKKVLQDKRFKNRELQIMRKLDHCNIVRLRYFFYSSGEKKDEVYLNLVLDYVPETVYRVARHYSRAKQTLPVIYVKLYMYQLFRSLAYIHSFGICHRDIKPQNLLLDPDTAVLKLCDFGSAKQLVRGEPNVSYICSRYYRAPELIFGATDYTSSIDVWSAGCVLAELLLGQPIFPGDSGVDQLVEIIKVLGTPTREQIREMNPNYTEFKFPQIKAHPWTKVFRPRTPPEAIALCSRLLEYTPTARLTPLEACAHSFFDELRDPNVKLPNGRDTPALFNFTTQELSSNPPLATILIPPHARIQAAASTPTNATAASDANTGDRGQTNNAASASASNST

With SGRPPMIVWFNRPFLIAVSHTHGQTILFMAKVINPVGA [D3 peptide] the “D3 at 0.1 µM % activity” value [1] was 103 % activity, the “D3 at 1 µm % activity” value [1] was 71 % activity and the “D3 at 0.1 µM % activity” value [2] was 96 % activity. For the same binder, the “D3 at 1 µm % activity” value [2] was 103 % activity, the “D3 at 0.1 µM % activity” value [3] was 86 % activity and the “D3 at 1 µm % activity” value [3] was 92 % activity. For the same binder, the “D3 at 0.1 µM % activity” value [4] was 96 % activity, the “D3 at 1 µm % activity” value [4] was 96 % activity and the “D3 at 0.1 µM % activity” value [5] was 73 % activity. For the same binder, the “D3 at 1 µm % activity” value [5] was 22 % activity, the “D3 at 0.1 µM % activity” value [6] was 98 % activity and the “D3 at 1 µm % activity” value [6] was 108 % activity. For the same binder, the “D3 at 0.1 µM % activity” value [7] was 115 % activity, the “D3 at 1 µm % activity” value [7] was 105 % activity and the “D3 at 0.1 µM % activity” value [8] was 63 % activity. The “D3 at 1 µm % activity” value [8] was 12 % activity, the “D3 at 0.1 µM % activity” value [9] was 101 % activity and the “D3 at 1 µm % activity” value [9] was 103 % activity. The “D3 at 0.1 µM % activity” value [10] was 95 % activity, the “D3 at 1 µm % activity” value [10] was 42 % activity and the “D3 at 0.1 µM % activity” value [11] was 74 % activity. For the same binder, the “D3 at 1 µm % activity” value [11] was 5 % activity, the “D3 at 0.1 µM % activity” value [12] was 101 % activity and the “D3 at 1 µm % activity” value [12] was 100 % activity.
